# Paper PMC7141177 (Journal of molecular biology, 2018)
# pKd: −log10 of the molar value.
# How the values were obtained:
# [1] = molecular target: AKMT-ΔNTD (Toxoplasma gondii, UniProt B9Q0K5); test: isothermal titration calorimetry; assay type: binding
# [2] = molecular target: AKMT-ΔNTD (aa289–709) (Toxoplasma gondii); test: SEC-MALS
# [3] = molecular target: AKMT-ΔNTD-short (aa309–709) (Toxoplasma gondii); test: SEC-MALS
# [4] = molecular target: full-length T. gondii apical complex lysine (K) methyltransferase (AKMT, aa1–709) (Toxoplasma gondii); test: SEC-MALS
molecule,measurement,setting,value
Nc1ncnc2c1ncn2[C@@H]1O[C@H](C[C@@H](N)CC[C@H](N)C(=O)O)[C@@H](O)[C@H]1O [sinefungin],pKd,[1],6.59
AKMT-ΔNTD (aa289–709) (domain or fragment),stoichiometry N,[2],2
AKMT-ΔNTD-short (aa309–709) (domain or fragment),stoichiometry N,[3],2
"full-length T. gondii apical complex lysine (K) methyltransferase (AKMT, aa1–709) (enzyme)",stoichiometry N,[4],2
